The source of these data is publication PMC10762164, “Lipid nanodisc scaffold and size alter the structure of a pentameric ligand-gated ion channel” (Nature Communications, 2024).

Data set [1] concerns the molecule itself. Briefly: cryo-EM structure; single particle cryo-EM of ELIC or ELIC5 in SMA, saposin, spMSP1D1 or spNW15 nanodiscs with 2:1:1 POPC:POPE:POPG; 10 mM HEPES pH 7.5, 100 mM NaCl; with 50 mM propylamine or apo; C5 symmetry in 3D classification and refinement.
The data set “cryo-EM structure” concerns the molecule itself. As to the kind of experiment: cryo-EM structure.

B1: Erwinia ligand-gated ion channel (ELIC), wild type (natural protein, UniProt P0C7B7 1-321, looked up)
chain: APADNAADARPVDVSVSIFINKIYGVNTLEQTYKVDGYIVAQWTGKPRKTPGDKPLIVENTQIERWINNGLWVPALEFINVVGSPDTGNKRLMLFPDGRVIYNARFLGSFSNDMDFRLFPFDRQQFVLELEPFSYNNQQLRFSDIQVYTENIDNEEIDEWWIRKASTHISDIRYDHLSSVQPNQNEFSRITVRIDAVRNPSYYLWSFILPLGLIIAASWSVFWLESFSERLQTSFTLMLTVVAYAFYTSNILPRLPYTTVIDQMIIAGYGSIFAAILLIIFAHHRQAMGVEDDLLIQRCRLAFPLGFLAIGCVLVIRGITL
notes: Erwinia ligand-gated ion channel (ELIC), a pentameric ligand-gated ion channel, from plasmid pET-26-MBP-ELIC; Homopentamer; also called WT ELIC
B1: the binding result in data set [1] is given as “binds”.

B2: ELIC5 (P254G/C300S/V261Y/G319F/I320F), non-desensitizing mutant of ELIC (natural protein)
chain: APADNAADARPVDVSVSIFINKIYGVNTLEQTYKVDGYIVAQWTGKPRKTPGDKPLIVENTQIERWINNGLWVPALEFINVVGSPDTGNKRLMLFPDGRVIYNARFLGSFSNDMDFRLFPFDRQQFVLELEPFSYNNQQLRFSDIQVYTENIDNEEIDEWWIRKASTHISDIRYDHLSSVQPNQNEFSRITVRIDAVRNPSYYLWSFILPLGLIIAASWSVFWLESFSERLQTSFTLMLTVVAYAFYTSNILGRLPYTTYIDQMIIAGYGSIFAAILLIIFAHHRQAMGVEDDLLIQRSRLAFPLGFLAIGCVLVIRFFTL
With B2, the binding result in the data set “cryo-EM structure” is listed as “binds”.
